# T1: endogenous LGR5 of human cancer cell lines (human (endogenous in NALM6, REH, 697, LoVo)) (UniProt O75473)
# T1 sequence: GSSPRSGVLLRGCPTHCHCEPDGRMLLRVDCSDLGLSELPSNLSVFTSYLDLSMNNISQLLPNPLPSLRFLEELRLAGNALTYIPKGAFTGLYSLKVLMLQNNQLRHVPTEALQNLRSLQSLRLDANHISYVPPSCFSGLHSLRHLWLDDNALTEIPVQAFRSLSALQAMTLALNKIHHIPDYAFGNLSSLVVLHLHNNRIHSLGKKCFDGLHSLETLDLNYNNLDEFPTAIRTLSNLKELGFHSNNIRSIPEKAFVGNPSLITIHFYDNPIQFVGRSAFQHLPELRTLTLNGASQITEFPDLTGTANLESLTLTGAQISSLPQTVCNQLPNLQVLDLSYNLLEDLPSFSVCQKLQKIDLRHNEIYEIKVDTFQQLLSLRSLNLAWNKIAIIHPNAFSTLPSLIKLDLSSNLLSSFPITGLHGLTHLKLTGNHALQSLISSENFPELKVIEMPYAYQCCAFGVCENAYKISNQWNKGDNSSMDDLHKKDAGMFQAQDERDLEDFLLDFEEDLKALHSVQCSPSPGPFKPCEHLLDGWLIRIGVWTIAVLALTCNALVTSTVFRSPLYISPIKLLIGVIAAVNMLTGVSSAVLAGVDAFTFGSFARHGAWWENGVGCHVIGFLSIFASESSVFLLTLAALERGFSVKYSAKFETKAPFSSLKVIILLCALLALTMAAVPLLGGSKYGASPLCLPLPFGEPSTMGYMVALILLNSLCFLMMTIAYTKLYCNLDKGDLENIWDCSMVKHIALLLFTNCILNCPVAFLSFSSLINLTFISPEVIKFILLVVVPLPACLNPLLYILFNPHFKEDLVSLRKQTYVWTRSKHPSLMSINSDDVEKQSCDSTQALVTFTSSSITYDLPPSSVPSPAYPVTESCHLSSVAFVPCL
# T2: RAD-displayed Fragment 1A of human LGR5 (Homo sapiens, UniProt O75473)
# T2 chain: GSSPRSGVLLRGCPT
# What was measured:
# [1] = target: T1, endogenous LGR5 of human cancer cell lines (human (endogenous in NALM6, REH, 697, LoVo))
# [2] = target: T1, endogenous LGR5 of human cancer cell lines (human (endogenous in NALM6, REH, 697, LoVo)); remark: listed apart in the source
# [3] = target: T2, RAD-displayed Fragment 1A of human LGR5; test: BLI
# [4] = target: T2, RAD-displayed Fragment 1A of human LGR5; test: western blot
# [5] = target: T3, endogenous LGR5 of human cancer cell lines (Homo sapiens, UniProt O75473); test: western blot
# [6] = target: T3, endogenous LGR5 of human cancer cell …; test: flow cytometry on cells
# [7] = target: T2, RAD-displayed Fragment 1A of human LGR5; test: immunostaining of cells or tissue
# [8] = target: murine LGR5 transgene with N-terminal HA tag, V2 receptor tail and eGFP (Mus musculus, UniProt Q9Z1P4); test: flow cytometry on cells
# Sequence of murine LGR5 transgene with N-terminal HA tag, V2 receptor tail and eGFP (Q9Z1P4 22-907): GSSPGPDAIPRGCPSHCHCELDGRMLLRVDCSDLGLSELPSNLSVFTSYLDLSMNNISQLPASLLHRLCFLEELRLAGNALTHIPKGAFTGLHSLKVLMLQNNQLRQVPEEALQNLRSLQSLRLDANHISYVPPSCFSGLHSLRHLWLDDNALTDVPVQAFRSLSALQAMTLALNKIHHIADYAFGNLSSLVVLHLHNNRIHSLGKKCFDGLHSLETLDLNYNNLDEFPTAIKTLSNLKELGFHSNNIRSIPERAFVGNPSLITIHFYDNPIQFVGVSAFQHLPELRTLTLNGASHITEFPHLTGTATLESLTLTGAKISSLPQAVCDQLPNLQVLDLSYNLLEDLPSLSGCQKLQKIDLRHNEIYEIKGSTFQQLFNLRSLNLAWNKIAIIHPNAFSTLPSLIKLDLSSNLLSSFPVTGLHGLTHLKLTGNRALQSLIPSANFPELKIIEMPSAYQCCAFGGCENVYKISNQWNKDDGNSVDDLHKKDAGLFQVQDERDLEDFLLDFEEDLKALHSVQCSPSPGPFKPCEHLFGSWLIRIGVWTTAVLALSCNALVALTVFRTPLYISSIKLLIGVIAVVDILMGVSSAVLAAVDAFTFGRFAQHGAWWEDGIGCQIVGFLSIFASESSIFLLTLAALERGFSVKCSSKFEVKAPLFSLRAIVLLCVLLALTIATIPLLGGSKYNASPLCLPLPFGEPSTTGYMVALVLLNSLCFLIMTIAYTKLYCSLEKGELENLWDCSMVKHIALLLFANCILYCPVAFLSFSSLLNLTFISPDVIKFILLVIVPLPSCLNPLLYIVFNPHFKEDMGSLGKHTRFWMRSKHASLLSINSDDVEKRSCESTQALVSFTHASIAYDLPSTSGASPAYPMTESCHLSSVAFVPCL
# [9] = target: human LGR4 transgene with N-terminal HA tag, V2 receptor tail and eGFP (Homo sapiens, UniProt Q9BXB1); test: flow cytometry on cells
# Sequence of human LGR4 transgene with N-terminal HA tag, V2 receptor tail and eGFP (Q9BXB1 25-951): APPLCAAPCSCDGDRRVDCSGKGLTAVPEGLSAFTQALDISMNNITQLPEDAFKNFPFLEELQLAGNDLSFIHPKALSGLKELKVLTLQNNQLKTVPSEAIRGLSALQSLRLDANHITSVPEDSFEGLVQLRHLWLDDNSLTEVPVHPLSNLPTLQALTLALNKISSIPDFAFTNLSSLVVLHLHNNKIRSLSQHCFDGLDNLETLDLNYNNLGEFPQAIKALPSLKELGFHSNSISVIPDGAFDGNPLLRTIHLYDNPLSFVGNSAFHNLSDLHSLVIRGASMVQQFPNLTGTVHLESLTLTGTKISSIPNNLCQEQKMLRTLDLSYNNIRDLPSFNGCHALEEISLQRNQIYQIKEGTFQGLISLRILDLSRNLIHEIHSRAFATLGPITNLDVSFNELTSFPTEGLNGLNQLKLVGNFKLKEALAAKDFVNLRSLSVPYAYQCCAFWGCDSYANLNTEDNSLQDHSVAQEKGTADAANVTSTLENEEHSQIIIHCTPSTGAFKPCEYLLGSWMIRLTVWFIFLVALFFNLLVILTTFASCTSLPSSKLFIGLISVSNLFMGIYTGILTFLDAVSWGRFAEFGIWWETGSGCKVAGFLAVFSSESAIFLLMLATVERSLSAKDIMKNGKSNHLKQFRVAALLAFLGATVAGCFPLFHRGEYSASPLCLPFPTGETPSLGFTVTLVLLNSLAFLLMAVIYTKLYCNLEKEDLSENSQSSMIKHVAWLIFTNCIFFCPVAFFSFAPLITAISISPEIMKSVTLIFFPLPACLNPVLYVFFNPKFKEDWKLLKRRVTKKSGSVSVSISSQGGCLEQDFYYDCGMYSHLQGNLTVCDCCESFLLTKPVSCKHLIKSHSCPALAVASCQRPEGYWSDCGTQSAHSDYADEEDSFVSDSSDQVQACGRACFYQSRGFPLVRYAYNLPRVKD
binder,measurement,setting,value
"α-LGR5-ADC (murine clone 2 conjugated to MMAE, sulphatase cleavable linker) (antibody, V domains shown) VH: QVQLQQPGAELVKPGASVKLSCKASGYTFTNYWMQWVKQRPGQGLEWIGEIDPSDSYTNYNQKFKGKATLTVDTSSSTAYMQLSSLTSEDSAVYYCARSLSGYVDYWGQGTTLTVSS VL: DIQMTQTTSSLSASLGDRVTISCRASQDISNRLNWYQQKPDGTVKLLISYRSRLHSGVPSRFSGSGSGTDYSLTISNLEQEDIATYFCQQGNSLPPTFGGGTKLEVR","killing of NALM6 cells after three days of treatment (CellTiter-Glo), EC50",[1],4 nM
same,"killing of REH cells after three days of treatment (CellTiter-Glo), EC50",[1],10 nM
same,"killing of LoVo cells after three days of treatment (CellTiter-Glo), EC50",[2],9 nM
same,binding result,[3],binds
"α-LGR5 hybridoma clone 4 (antibody, V domains shown) VH: QVQLQQPGAELVKPGASVKLSCKASGYTFTDYWMQWVKQRPGQGLEWIGEIDPSDSYTNYNQKFQGKATLTVDTSSSTAYIQLSSLTSDDSAVYYCARSLSGSVDYWGQGTTLTVSS VL: DIQMTQTTSSLSASLGDRVTISCRASQDISNRLNWYQQKPDGTVKLLISYRSRLQSGVPSRFSGSGSGTDYSLTITNLEQEDIATYFCQQGNTLPPTFGGGTKLEVR",binding result,[4],binds
"α-LGR5 hybridoma clone 1 (antibody, V domains shown) VH: QVQLQQPGAELVKPGASVKLSCKASGYTFTSYWMQWVKQRPGQGLEWIGEIDPSDYYTNYNQKFKGKATLTVDTSSSTAYMQLSSLTSEDSAVYYCARSLSGYVDYWGQGTTLTVSS VL: DIQMTQSTSSLSASLGDRVTINCRASQDIRNRLNWYQQKPDGTVKLLISYRSRLQSGVPSRFSGSGSGTEYSLTISNLEQEDIATYFCQQGNTLPPTFGGGTKLEVR",binding result,[4],binds
"α-LGR5 hybridoma clone 2 (antibody, V domains shown) VH: QVQLQQPGAELVKPGASVKLSCKASGYTFTNYWMQWVKQRPGQGLEWIGEIDPSDSYTNYNQKFKGKATLTVDTSSSTAYMQLSSLTSEDSAVYYCARSLSGYVDYWGQGTTLTVSS VL: DIQMTQTTSSLSASLGDRVTISCRASQDISNRLNWYQQKPDGTVKLLISYRSRLHSGVPSRFSGSGSGTDYSLTISNLEQEDIATYFCQQGNSLPPTFGGGTKLEVR",binding result,[5],binds
same,binding result,[4],binds
"murine α-LGR5 coupled to Dylight650 fluorophore (antibody, V domains shown) VH: QVQLQQPGAELVKPGASVKLSCKASGYTFTNYWMQWVKQRPGQGLEWIGEIDPSDSYTNYNQKFKGKATLTVDTSSSTAYMQLSSLTSEDSAVYYCARSLSGYVDYWGQGTTLTVSS VL: DIQMTQTTSSLSASLGDRVTISCRASQDISNRLNWYQQKPDGTVKLLISYRSRLHSGVPSRFSGSGSGTDYSLTISNLEQEDIATYFCQQGNSLPPTFGGGTKLEVR",binding result,[6],binds
same,binding result,[7],binds
same,binding result,[8],no binding
same,binding result,[9],no binding
"α-LGR5 hybridoma clone 3 (antibody, V domains shown) VH: QVQLQQPGAELVKPGASVKLSCKASGYTFTSYWMQWVKQRPGQGLEWIGEIDPSDSYSNYNQKFKGKATLTVDTSSSTAYMQLSSLTSEDSAVYYCARSLSGYVDYWGQGTTLTVSS VL: DIQMTQTTSSLSASLGDRVTISCRASQDISNRLNWYQQKPDGTVKLLISYRSRLQSGVPSRFSGSGSGTDYSLTISNLEEEDIATYFCQQGNTLPPTFGGGTKLEVR",binding result,[4],binds
